In IntAct's records for PubMed 16511572:

B1: 14-3-3 protein gamma (Homo sapiens), P61981 (parent)
chain: MVDREQLVQKARLAEQAERYDDMAAAMKNVTELNEPLSNEERNLLSVAYKNVVGARRSSWRVISSIEQKTSADGNEKKIEMVRAYREKIEKELEAVCQDVLSLLDNYLIKNCSETQYESKVFYLKMKGDYYRYLAEVATGEKRATVVESSEKAYSEAHEISKEHMQPTHPIRLGLALNYSVFYYEIQNAPEQACHLAKTAFDDAIAELDTLNEDSYKDSTLIMQLLRDNLTLWTSDQQDDDGGEGNN
partner: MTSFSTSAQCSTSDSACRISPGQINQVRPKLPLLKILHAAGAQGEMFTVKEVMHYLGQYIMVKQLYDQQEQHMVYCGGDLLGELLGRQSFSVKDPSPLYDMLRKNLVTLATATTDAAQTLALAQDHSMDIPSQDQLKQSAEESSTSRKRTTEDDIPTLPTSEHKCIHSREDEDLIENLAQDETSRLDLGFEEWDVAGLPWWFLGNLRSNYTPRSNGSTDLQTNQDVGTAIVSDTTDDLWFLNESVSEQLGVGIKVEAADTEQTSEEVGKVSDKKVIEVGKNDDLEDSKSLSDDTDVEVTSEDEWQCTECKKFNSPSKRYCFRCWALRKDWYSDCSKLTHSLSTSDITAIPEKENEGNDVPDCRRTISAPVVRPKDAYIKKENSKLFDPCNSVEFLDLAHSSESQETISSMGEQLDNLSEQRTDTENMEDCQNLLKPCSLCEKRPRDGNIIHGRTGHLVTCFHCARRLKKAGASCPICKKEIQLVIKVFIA
B2: Protein Mdm4 (Homo sapiens), O15151 (parent)
chain: B1 partner
partner: B1 chain

Variants of: B1
Conditions: with mdm4_human MDM4, O15151

effect of a mutation on the interaction	Variant
disrupting interaction	K50E

Variants of: B2
Conditions: with 1433g_human YWHAG

effect of a mutation on the interaction	Variant
disrupting interaction	P369G
disrupting interaction	S367G
